B1: C10orf62 (parent)
chain: MLWVQRKRRRKETSECPSDKDKSP
B2: PPFIA4 (parent)
chain: VMTLPSDLRKHRRKLLSPVSREEN

Variants of: B1
Assay: protein stability index of a GFP-peptide fusion (GPS, HEK-293T) (PSI 1-6); higher = more stable
Conditions: c terminus: a fixed tail appended
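Also: lentivirally expressed fusions sorted by FACS into six bins by GFP to DsRed ratio, PSI derived from sequencing read proportions per bin multiplied by bin number.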

Protein stability index: each site, then its substitutions
K7: Q 3.74
M1: H 3.73
D21: G 3.36, F 2.4, I 2.32, M 2.5
C16: W 2.16, P 2.16, R 3.35, E 3.25, H 3.11
R10: W 2.89
R9: Q 3.2, F 3.64, V 3.18
K11: H 2.72, F 2.73, L 3.55, T 2.73
P17: I 2.96, A 4.1, E 2.41
S18: K 2.77, A 3.23
R6: N 3.87, L 3.11, W 3.21, K 3.13
R8: F 3.05, G 4.16
D19: M 3.44, L 1.98, V 2.63
L2: D 4.88, F 1.33, Y 2.41, A 3.92
K20: T 3.35, C 3.52
W3: T 4.73
E12: R 3.7, W 2.5, L 3.02, S 3.45, C 2.7
V4: N 3.87, C 3.91
S14: Y 2.44
E15: N 3.52
P24: S 3.11, A 3.72, W 3.58, L 2.37
S23: G 3.25, E 2.48, M 3.39

Variants of: B2
Assay: as above
Conditions: c terminus: a fixed tail appended

Protein stability index of substitutions, site by site:
S6: R 3.41, T 3.52, A 3.93, L 3.38, N 3.51, H 3.52, K 3.24, I 3.04, M 3.4, D 4.02, Q 3.63, C 3.6, Y 3.5, F 3.57, V 2.4, E 3.85, P 3.97, G 3.65
L8: G 3.56, M 4.01, W 3.22, P 3.84, K 4.14, A 3.43, F 3.59, D 4.28, S 4.73, T 4.24, Y 3.24, Q 4.05, I 4.07, R 4.15, V 4.11, H 3.9, C 4.04, N 3.74, E 4.35
K14: W 2.43, D 4.28, Y 3.1, F 3.54, H 3.81, E 4.07, L 3.48, I 3.1, A 3.61, V 3.13, N 3.9, P 4.01, R 3.32, S 3.79, G 4.33, Q 3.94, M 3.65, C 2.98, T 4.01
M2: K 3.82, T 4.46, V 3.46, E 4.54, F 3.19, Y 3.15, C 3.65, A 4.31, H 4.02, S 3.69, W 3.72, L 3.48, N 3.84, R 4.04, G 4.17, D 4.71, I 3.12, P 3.93, Q 3.06
K10: C 3.52, Y 2.76, W 3.35, Q 4.29, L 3.43, I 3.25, F 2.75, G 3.87, V 2.96, R 3.95, H 3.58, E 3.48, D 4.32, M 3.46, A 4.32, N 3.77, S 3.88, T 4.02, P 4.05
L15: I 3.9, F 4.27, E 4.22, Q 3.83, C 3.55, H 4.02, N 4.38, G 4.39, A 4.08, D 4.63, P 4.11, K 3.94, M 4.08
H11: T 3.79, S 3.75, N 4.02, V 3.35, R 3.99, E 4.37, Y 3.35, I 3.12, D 4.37, A 3.42, P 4.4, W 3.24, M 3.49, Q 2.93, G 3.79, L 3.14, F 3.46, C 3.69, K 3.44
P5: I 2.12, W 2.25, F 2.1, S 3.08, G 3.01, H 2.67, V 2.76, N 3.47, R 4, L 2.48, Y 2.7, E 4.18, Q 3.4, K 3.4, A 3.06, T 3.67, C 2.63, D 4.37, M 2.47
T3: K 2.66, A 3.92, F 1.74, I 2.65, S 3.71, Y 2.5, V 2.95, G 3.99, E 3.51, N 2.82, M 2.31, W 2.26, L 2.32, P 3.51, R 3.07, Q 2.85, H 3.52, C 3.56, D 4.12
R12: Y 3.35, N 4.14, V 3.41, M 3.47, P 4.34, F 3.36, L 2.95, G 3.86, K 3.81, A 3.66, E 4.58, S 4.12, D 4.68, I 3.51, H 3.92, C 3.34, T 4.21, W 2.73, Q 4.29
R13: T 3.98, A 4.11, E 4.59, F 2.89, S 4.36, Q 4.27, W 2.92, G 3.91, V 3.78, Y 3.63, K 3.5, P 4.33, C 3.49, L 4.05, I 3.47, D 4.09, H 4.05, M 3.12, N 3.95
L4: Y 3.45, Q 4.02, V 3.77, T 4.28, D 4.14, M 3.69, K 4.44, A 4.27, I 3.42, P 4.32, G 4.45, R 3.25, C 4.31, S 3.94, E 4.37, N 4.23, F 3.4, W 4.09, H 4.08
D7: Q 3.3, S 2.98, N 3.39, T 3.24, Y 3.2, R 3.31, G 3.62, W 2.92, A 2.24, E 3.46, F 2.57, P 3.44, V 2.84, H 3.15, C 2.86, L 2.33, I 2.72, K 3.19, M 2.94
V1: E 4.2, K 3.81, Y 3.21, D 4.35, A 3.93, T 4.25, H 4.25, Q 4.35, M 3.89, F 2.83, P 4.27, G 3.31, R 4.59, L 3.27, N 3.62, S 4.27, I 3.55, C 3.81, W 2.66
R9: S 4.14, M 3.53, Q 4.49, I 3.69, H 3.9, W 3.49, E 4.11, T 4, G 4.46, K 4, P 4.44, N 4.18, L 3.59, Y 3.41, A 4.01, V 3.82, F 3.31, D 4.1, C 4.01
